Data: patent US20070105796A1

Molecular target: TERT (telomerase reverse transcriptase), catalytic subunit of telomerase (human) (UniProt O14746)
Assay: cell-based or functional assay

TERT (telomerase reverse transcriptase), catalytic subunit of telomerase (human), sequence (O14746 whole entry): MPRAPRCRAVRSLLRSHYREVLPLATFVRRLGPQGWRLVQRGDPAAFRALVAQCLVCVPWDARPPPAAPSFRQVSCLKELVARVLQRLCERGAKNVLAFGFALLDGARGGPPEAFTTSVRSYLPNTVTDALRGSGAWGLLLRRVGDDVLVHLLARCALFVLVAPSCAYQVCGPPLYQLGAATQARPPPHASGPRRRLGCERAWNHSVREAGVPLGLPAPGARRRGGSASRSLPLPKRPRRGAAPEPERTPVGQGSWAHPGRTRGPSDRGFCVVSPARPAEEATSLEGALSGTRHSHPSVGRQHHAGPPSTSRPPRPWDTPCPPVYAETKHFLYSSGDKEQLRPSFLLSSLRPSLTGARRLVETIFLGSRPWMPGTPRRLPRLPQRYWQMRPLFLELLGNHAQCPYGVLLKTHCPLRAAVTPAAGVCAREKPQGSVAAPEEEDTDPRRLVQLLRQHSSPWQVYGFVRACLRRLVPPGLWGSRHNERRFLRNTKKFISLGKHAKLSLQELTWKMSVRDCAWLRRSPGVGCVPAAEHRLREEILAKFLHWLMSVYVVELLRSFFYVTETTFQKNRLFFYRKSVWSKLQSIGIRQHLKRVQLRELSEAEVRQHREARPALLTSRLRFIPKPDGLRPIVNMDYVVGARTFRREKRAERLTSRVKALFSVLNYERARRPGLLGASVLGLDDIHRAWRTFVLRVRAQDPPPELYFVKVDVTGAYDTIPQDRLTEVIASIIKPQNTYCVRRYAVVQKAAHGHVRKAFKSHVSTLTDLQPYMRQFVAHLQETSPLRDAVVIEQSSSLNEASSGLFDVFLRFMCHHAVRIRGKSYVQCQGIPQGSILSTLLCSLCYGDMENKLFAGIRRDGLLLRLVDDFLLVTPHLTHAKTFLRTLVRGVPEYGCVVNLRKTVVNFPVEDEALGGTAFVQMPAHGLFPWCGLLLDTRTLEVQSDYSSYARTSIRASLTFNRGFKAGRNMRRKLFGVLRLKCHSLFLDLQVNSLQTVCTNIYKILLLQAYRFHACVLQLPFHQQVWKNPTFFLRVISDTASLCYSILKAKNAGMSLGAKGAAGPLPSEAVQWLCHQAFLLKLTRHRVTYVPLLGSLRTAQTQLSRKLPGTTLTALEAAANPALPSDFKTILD

N-terminal HA-tagged inactive MAPKAPK3 (T201A/T313A) (from UniProt Q16644 1-382) (enzyme)
intracellular telomerase activity (TRAP method) in HEK293T cells: 0.7 fold

GST fusion active MAPKAPK3 (T201E/T313E) (from UniProt Q16644 1-382) (enzyme)
telomerase activity (TRAP method) in dephosphorylated HEK293 cell nuclear extract after phosphorylation reaction: 1.5 fold

N-terminal HA-tagged active MAPKAPK3 (T201E/T313E) (from UniProt Q16644 1-382) (enzyme)
intracellular telomerase activity (TRAP method) in HEK293T cells against the negative control vector: 1.4 fold
